# Values quoted from earlier work in article PMC4125468.
# Read-outs that look alike come from different tables or passages of the source.
# Columns and labels:
# MD-2 (Homo sapiens) [1] = molecular target: MD-2 (Homo sapiens) (UniProt Q9Y6Y9)
# sCD14 (Homo sapiens) = sCD14 (Homo sapiens) (UniProt P08571)
# MD-2 (Homo sapiens) [2] = molecular target: MD-2 (Homo sapiens) (UniProt Q9Y6Y9); assay: radioligand binding
# Sequence of UniProt P08571 (P08571 20-345): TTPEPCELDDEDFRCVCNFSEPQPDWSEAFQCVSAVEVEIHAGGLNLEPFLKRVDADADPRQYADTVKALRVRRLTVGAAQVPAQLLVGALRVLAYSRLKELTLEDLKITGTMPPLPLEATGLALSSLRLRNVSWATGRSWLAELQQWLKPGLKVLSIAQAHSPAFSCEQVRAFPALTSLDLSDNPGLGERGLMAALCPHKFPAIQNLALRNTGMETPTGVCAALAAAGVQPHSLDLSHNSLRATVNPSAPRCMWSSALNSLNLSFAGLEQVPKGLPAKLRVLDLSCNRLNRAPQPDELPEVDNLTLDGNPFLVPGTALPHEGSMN
substance,measurement,setting,value
TLR4ECD ECD (from UniProt O00206),Kd,MD-2 (Homo sapiens) [1],0.2 nM
MD-2/TLR4ECD ECD (from UniProt Q9Y6Y9),Kd,sCD14 (Homo sapiens),0.2 nM
TLR4 ECD (from UniProt O00206),Kd,MD-2 (Homo sapiens) [2],0.5 nM
